Experimental data: publication PMC6925130, “Cleaved CD31 as a target for in vivo molecular imaging of inflammation” (Scientific Reports, 2019)
Non-standard residues stand in square brackets, D forms with d. Residues, ends and D or L forms follow the SMILES beside them. *: point of attachment. HYNIC = NNc1ccc(C(=O)*)cn1; PEG3 = NCCOCCOCCOCCC(=O)O

Experiments:
[1] = system: turpentine injected hindlimb (sterile acute inflammation); assay: SPECT/CT and PET/MRI imaging of turpentine oil-induced sterile acute inflammation; format: in vivo, male Wistar rats; conditions: turpentine injected hindlimb / saline injected hindlimb; PET/MRI 1 h p.i., retro-orbital ≈20 MBq; n = 23
Experimental: Two to 3-month-old adult male Wistar rats, weighing 250–300 g were used. The animals were housed in a controlled environment. The procedures and animal care complied with the principles formulated by the National Society for Medical Research. All methods were performed in accordance with the guidelines of the French Directorate of Veterinary Services (authorization: No. 75-214). All methods were approved by the animal ethics committee of the Claude Bernard Institute (APAFIS #14821, Paris, France). Aseptic inflammation was obtained according to a standardized procedure consisting of turpentine oil injection characterized by a massive local influx of activated inflammatory cells[33],[34]. […]
Imaging procedures of ^99mTc-HYNIC-P8RI (D and L) were performed using Single Photon Emission Computed Tomography coupled to X-ray computed tomography (SPECT/CT). […] Reconstructed slices were visually assessed in 3 planes (axial, coronal, and sagittal). […]
Three-dimensional Regions of Interests (3D-ROIs) were placed on the inflammatory muscles and the mean signal per volume unit (kBq/mL) was measured. Assuming a tissue density of 1 g/mL, the radioactivity contained in the ROI was divided by the dose administered to the animal and the volume of the ROI to obtain an imaging ROI-derived % ID/g. […]

in vivo = assay: in vivo; parameters: species or system male Wistar rats; conditions: male, Wistar, rat, iv, 30 MBq, total radioactivity, Biodistribution
Experimental: Biodistribution of ^99mTc-HYNIC-D-P8RI was performed 15, 30, 90 min and 24 h post-injection. Animals (n = 3 for each time point) were injected intravenously through penis vein with 30 ± 3 MBq of ^99mTc-HYNIC-D-P8RI. They were sacrificed by isoflurane overdose and blood, heart, liver, thyroid, spleen, kidney, brain, intestine and muscle tissues were harvested and counted using a well counter. Results were expressed as the percentage of injected dose per gram of tissue (% ID/g). To characterize radiotracer elimination and potential degradation, rat urine was collected 90 min p.i, passed through a 0.22 µm PVDF filter (Durapore^TM 13 mm, Merck), and analyzed using RP-HPLC as described in Supplementary Data.

in vitro [2] = format: in vitro ADME; conditions: human, plasma
Experimental: Protein binding of the purified radiolabeled D-P8RI peptide (final concentration 100 pmol/mL) was determined in triplicate after 0, 0.5, 1, 2, 3 and 4 h of incubation in fresh human plasma (collected in citrate tubes) at 37 °C and analyzed after size exclusion chromatography (illustra Microspin G-50 Columns, Sephadex G-50, GE Healthcare, UK). Simultaneously, radiolabeled peptide was incubated in PBS at 37 °C as a control. G-50 columns were prespun at 2000 × g for 1 min then 20 μL of mixture was added and the column was centrifuged at 2000 × g for 2 min. Columns and eluates were counted on a Wallac Wizard 3″ 1480 (Perkin Elmer, MA, USA), then protein binding was calculated using the following activity (A) ratio: A eluate/(A column + A eluate).

in vitro [3] = format: in vitro ADME; conditions: human, plasma; remark: listed apart in the source
Experimental: Plasma stability was assessed in triplicate at 1, 2 and 4 h after incubation of the radiolabeled D-P8RI peptide (final concentration 100 pmol/mL) in human plasma at 37 °C with RCP ≥94%. After precipitation of plasma proteins with acetonitrile and centrifugation (15000 × g, 10 min), the supernatant was analyzed by RP-HPLC as described in Supplementary Data. Plasma stability was expressed in RCP (%).

physchem = format: physicochemical; conditions: pH 7.2
Experimental: 500 µL of^ 99mTc-HYNIC-D-P8RI in PBS (pH 7.2) was added to 500 µL of octanol in a 1.5 mL conical vial. After 15 min of vortexing, the vial was centrifuged at 5000xg for 3 min. A 100 µL aliquot of both phases was collected in triplicate and counted with a gamma counter then log P values were calculated.

SMILES	Mean signal ratio (TIH/SIH), PET/MRI [1]	tissue uptake at 1.5 h (in vivo; bladder) [%ID/g]	tissue uptake at 0.25 h (in vivo; blood) [%ID/g]	tissue uptake at 24 h (in vivo; blood) [%ID/g]	tissue uptake at 1.5 h (in vivo; kidney) [%ID/g]	fraction unbound at 0 h, 100 pmol/mL (in vitro [2])	fraction unbound at 0.5 h, 100 pmol/mL (in vitro [2])	remaining at 1 h, 100 pmol/mL (in vitro [3]) [%]	remaining at 2 h, 100 pmol/mL (in vitro [3]) [%]	logD (physchem)
O=C[C@H]([18F])[C@@H](O)[C@H](O)[C@H](O)CO [[^18F]FDG, 2-deoxy-2-[^18F]fluoro-D-glucose]	4.49 ± 0.43									
CC(C)C[C@@H](NC(=O)[C@@H](C)NC(=O)[C@H]1CCCN1C(=O)[C@@H](Cc1c[nH]c2ccccc12)NC(=O)[C@@H](CCCCN)NC(=O)CCOCCOCCOCCNC(=O)c1ccc(NN)nc1)C(=O)N[C@H](Cc1ccccc1)C(=O)N[C@@H](C(=O)N[C@H](CCCNC(=N)N)C(=O)O)C(C)C [^99mTc-HYNIC-D-P8RI, metal not drawn] ({HYNIC-PEG3}-[dK][dW][dP][dA][dL][dF][dV][dR]-OH)		61.4 ± 13.4	9.74 ± 1.21	0.04 ± 0.02	14 ± 2.93	0.928	0.952	93.02 ± 0.04	91.05 ± 0.02	-2.92 ± 0.04
